Laboratory results from patent publication US9193963B2, “Mutant endoglucanase” (Toray Industries, Inc., priority 2011, dated 2015).
Numbering of substitutions follows the chain as printed.

B1: EGPh Mutant: mutant EGPh, SEQ ID NO: 2; 273rd tryptophan substituted with alanine (protein)
chain: MEGNTILKIVLICTILAGLFGQVVPVYAENTTYQTPTGIYYEVRGDTIYMINVTSGEETPIHLFGVNWFGFETPNHVVHGLWKRNWEDMLLQIKSLGFNAIRLPFCTESVKPGTQPIGIDYSKNPDLRGLDSLQIMEKIIKKAGDLGIFVLLDYHRIGCTHIEPLWYTEDFSEEDFINTWIEVAKRFGKYWNVIGADLKNEPHSVTSPPAAYTDGTGATWGMGNPATDWNLAAERIGKAILKVAPHWLIFVEGTQFTNPKTDSSYKWGYNAWAGGNLMAVKDYPVNLPRNKLVYSPHVYGPDVYNQPYFGPAKGFPDNLPDIWYHHFGYVKLELGYSVVIGEFGGKYGHGGDPRDVIWQNKLVDWMIENKFCDFFYWSWNPDSGDTGGILQDDWTTIWEDKYNNLKRLMDSCSKSSSSTQSVIRSTTPTKSNTSKKICGPAILIILAVFSLLLRRAPR
modifications: Pyrococcus horikoshii EGPh W273A
notes: 273rd tryptophan substituted with alanine
B2: EGIa2 Wild-type: Ignisphaera aggregans-derived endoglucanase 2, SEQ ID NO: 13, parent endoglucanase (protein)
chain: MYREKSCGSTIMDVYYRARGTEIYIERKGVEKPLYIFGINWAGFEWRGRVVGGLHVRNWVEILQQIKSLGFNAIRIPFCAESVKPGVFPAPRTINYALNRDLIGLDSISIMEKIIAKAAELELYILLCFHNISCLIMEPLWYTPLFSEQQFIDTWIRVAKRFSRYWNVIGAELYNNPHGRLPPSYYYESGECATWGMGNPKTDWNLAAERIGRAVLEVAPHWLIIVKGTQLTNPRSDNVPLYPEATYWGENLRAVRDYPVNLPRDKLVYGVDIYGPDVYYMPYFNDPNIFPDKLYLIWDQNWGYVKKELGYPLIIAEFGGLYGRGDPRDVIWHQKLVEYMISNNICHWFYNALNPDNPSTAGLLENDWRTVREDKMALLRRAMDYCRERYGNI
modifications: Ignisphaera aggregans EGIa2
B3: EGIa2 Mutant: mutant EgIa2, SEQ ID NO: 14; residue corresponding to 273rd tryptophan substituted with alanine (protein)
chain: B2 chain with W248A
modifications: Ignisphaera aggregans EGla2 W248A
notes: residue corresponding to 273rd tryptophan substituted with alanine
B4: EGIa1 Wild-type: Ignisphaera aggregans-derived endoglucanase1, SEQ ID NO: 7, parent endoglucanase (protein)
chain: MNFFVKNGEIYKLDGATGKPKIIYLFGVNWFGFETRDYVVHGLWARNWVDMLQQIKSLGFNAIRLPFCTYSVQEGTMPNSNAINYNINPDLQGLTSIEIMEKIVAKANELGIYILLDYHRLGCDQIEPLWYSDQVSEQQFIDTWVSVAKRFAKYPNVIGADIRNEPWGATWGTDDPATDWRLAVEKVAPKILEVAPHWLIFVEGTYKTRPDIDERSWYPYYSYYVFWGENLRAVRYYPVRLPYEKIVYSPHTYGPDVFRQPYFDDPIFPENMRSIWMERFGYVKTELGYALVVGEFGGRYGHGGDPRDIIWQIKFVDWLIENRICNFFYWSWNANSGDTGGILKDDWTNIWEDKYQNLKRLMDYCSSIN
modifications: Ignisphaera aggregans EGIa1
B5: EGIa1 Mutant: mutant EGIa1, SEQ ID NO: 8; residue corresponding to 273rd tryptophan substituted with alanine (protein)
chain: B4 chain with W227A
modifications: Ignisphaera aggregans EGIa1 W227A
notes: as for B3

Assay: Inhibition experiment with ferulic acid: degradation of phosphoric acid swollen cellulose
Format: biochemical
Conditions: ferulic acid 0 mM; enzyme 0.5 μM, 1 hour, 50° C.; parent at 0 mM = 100%

Row | Molecule | Relative activity to degrade phosphoric acid swollen cellulose
1 | B1 | 100%
2 | B2 | 100%
3 | B3 | 100%
4 | B4 | 100%
5 | B5 | 100%

Same assay, conditions: ferulic acid 5 mM; enzyme 0.5 μM, 1 hour, 50° C.; parent at 0 mM = 100%

Row | Molecule | Relative activity to degrade phosphoric acid swollen cellulose
6 | B1 | 100%
7 | B2 | 60%
8 | B3 | 95%
9 | B4 | 55%
10 | B5 | 100%

Same assay, conditions: ferulic acid 10 mM; enzyme 0.5 μM, 1 hour, 50° C.; parent at 0 mM = 100%

Row | Molecule | Relative activity to degrade phosphoric acid swollen cellulose
11 | B1 | 100%
12 | B2 | 60%
13 | B3 | 90%
14 | B4 | 50%
15 | B5 | 100%

Same assay, conditions: ferulic acid 15 mM; enzyme 0.5 μM, 1 hour, 50° C.; parent at 0 mM = 100%

Row | Molecule | Relative activity to degrade phosphoric acid swollen cellulose
16 | B1 | 95%
17 | B2 | 55%
18 | B3 | 90%
19 | B4 | 50%
20 | B5 | 95%

Assay: Activity to degrade phosphoric acid swollen cellulose
Format: biochemical
Conditions: 1% phosphoric acid swollen cellulose, pH 5.2, enzyme 0.5 μM, 1 hour, 50° C.; glucose generated by each parent endoglucanase = 100%
How it was run: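 Enzyme added to phosphoric acid swollen cellulose in 50 mM acetate buffer, pH 5.2; 1 h reaction at 30–85 °C, stopped by pH change if needed. Glucose released measured by glucose kit; activity expressed relative to parent endoglucanase set at 100%.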

Row | Molecule | Relative activity
21 | B1 | 100%
22 | B2 | 100%
23 | B3 | 100%
24 | B4 | 100%
25 | B5 | 100%

Assay: Saccharification of lignocellulose 3 with Celluclast and endoglucanase
Format: biochemical, Rice straw
Conditions: 5 wt % Lignocellulose 3, pH 5.2, 50° C., 24 hours; 1.0 mg/mL cellulase + 0.1 mg/mL endoglucanase
How it was run: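 Hydrothermally pretreated rice straw (180° C., 20 min) at 5 wt % in 50 mM acetate buffer pH 5.2 digested at 50° C. for 24 h with Celluclast 1.0 mg/mL plus mutant or wild-type endoglucanase 0.1 mg/mL. Released glucose measured over time.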

Row | Molecule | Concentration of glucose generated, Celluclast + Mutant | Concentration of glucose generated, Celluclast + Wild-type
26 | B1 | 16 g/L | 
27 | B2 |  | 11 g/L
28 | B3 | 14 g/L | 
29 | B4 |  | 11 g/L
30 | B5 | 15 g/L | 

Assay: Saccharification of lignocellulose 1 with Trichoderma reesei culture solution and endoglucanase
Format: biochemical, Rice straw
Conditions: Lignocellulose 1, 24 hours; cellulase 1.0 mg/mL + endoglucanase 0.1 mg/mL + β-glucosidase (Novozyme 188) 0.01 mg/mL
How it was run: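 Substrate was liquid-ammonia-treated rice straw (1 h, 150 °C), suspended at 5 wt % in 50 mM acetate buffer pH 5.2 and hydrolysed for 24 h at 50 °C. Enzymes: T. reesei culture solution 1.0 mg/mL, mutant or wild-type endoglucanase 0.1 mg/mL, β-glucosidase 0.01 mg/mL. Glucose released was measured.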

Row | Molecule | Concentration of glucose generated, Culture solution + Mutant | Concentration of glucose generated, Culture solution + Wild-type
31 | B1 | 13 g/L | 
32 | B2 |  | 8 g/L
33 | B3 | 13 g/L | 
34 | B4 |  | 8 g/L
35 | B5 | 12 g/L | 

Assay: Inhibition experiment with vanillin: degradation of phosphoric acid swollen cellulose
Format: biochemical
Conditions: vanillin 0 mM; enzyme 0.5 μM, 1 hour, 50° C.; parent at 0 mM = 100%
Description: This substance was diluted using buffer and water to obtain a 2 wt % mixture so that the final concentration of sodium acetate was 50 mM (pH 5.2). This was designated as phosphoric acid swollen cellulose and used for the following examples.
The activity of the wild-type and the mutant endoglucanases to degrade phosphoric acid swollen cellulose in the presence of vanillin was measured. 1% phosphoric acid swollen cellulose/50 mM acetate buffer (pH 5.2) was used as a substrate. Vanillin (Sigma Aldrich) was added at final concentrations of 0, 5, 10, and 15 mM. The enzymes prepared in Reference Example 1 and Example 2 were added at a final concentration of 0.5 μM, followed by 1 hour of enzymatic reaction at 50° C.

Row | Molecule | Relative activity to degrade phosphoric acid swollen cellulose
36 | B1 | 100%
37 | B2 | 100%
38 | B3 | 100%
39 | B4 | 100%
40 | B5 | 100%

Same assay, conditions: vanillin 5 mM; enzyme 0.5 μM, 1 hour, 50° C.; parent at 0 mM = 100%

Row | Molecule | Relative activity to degrade phosphoric acid swollen cellulose
41 | B1 | 95%
42 | B2 | 50%
43 | B3 | 95%
44 | B4 | 60%
45 | B5 | 100%

Same assay, conditions: vanillin 10 mM; enzyme 0.5 μM, 1 hour, 50° C.; parent at 0 mM = 100%

Row | Molecule | Relative activity to degrade phosphoric acid swollen cellulose
46 | B1 | 90%
47 | B2 | 45%
48 | B3 | 90%
49 | B4 | 55%
50 | B5 | 100%

Same assay, conditions: vanillin 15 mM; enzyme 0.5 μM, 1 hour, 50° C.; parent at 0 mM = 100%

Row | Molecule | Relative activity to degrade phosphoric acid swollen cellulose
51 | B1 | 90%
52 | B2 | 40%
53 | B3 | 90%
54 | B4 | 40%
55 | B5 | 95%

Assay: Saccharification of lignocellulose 3 with Trichoderma reesei culture solution and endoglucanase
Format: biochemical, Rice straw
Conditions: Lignocellulose 3, 24 hours; cellulase 1.0 mg/mL + endoglucanase 0.1 mg/mL + β-glucosidase (Novozyme 188) 0.01 mg/mL
How it was run: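 Hydrothermally treated rice straw (180 °C, 20 min, 10 MPa; solid fraction) suspended at 5 wt % in 50 mM acetate buffer pH 5.2, hydrolysed 24 h at 50 °C. Enzymes: T. reesei culture-solution cellulase 1.0 mg/mL, mutant or wild-type endoglucanase 0.1 mg/mL, β-glucosidase 0.01 mg/mL; glucose generated measured.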

Row | Molecule | Concentration of glucose generated, Culture solution + Mutant | Concentration of glucose generated, Culture solution + Wild-type
56 | B1 | 13 g/L | 
57 | B2 |  | 8 g/L
58 | B3 | 11 g/L | 
59 | B4 |  | 8 g/L
60 | B5 | 12 g/L | 

Assay: Saccharification of lignocellulose 2 with Trichoderma reesei culture solution and endoglucanase
Format: biochemical, Rice straw
Conditions: Lignocellulose 2, 24 hours; cellulase 1.0 mg/mL + endoglucanase 0.1 mg/mL + β-glucosidase (Novozyme 188) 0.01 mg/mL
How it was run: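 Dilute-sulfuric-acid-autoclaved rice straw (pH ~5) suspended at 5 wt % in 50 mM acetate pH 5.2, hydrolysed 24 h at 50 °C. Enzymes: T. reesei culture solution 1.0 mg/mL, mutant or wild-type endoglucanase 0.1 mg/mL, β-glucosidase 0.01 mg/mL. Glucose released was measured.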

Row | Molecule | Concentration of glucose generated, Culture solution + Mutant | Concentration of glucose generated, Culture solution + Wild-type
61 | B1 | 12 g/L | 
62 | B2 |  | 8 g/L
63 | B3 | 13 g/L | 
64 | B4 |  | 9 g/L
65 | B5 | 12 g/L | 

Assay: Saccharification of lignocellulose 1 with Celluclast and endoglucanase
Format: biochemical, Rice straw
Conditions: 5 wt % Lignocellulose 1, pH 5.2, 50° C., 24 hours; 1.0 mg/mL cellulase + 0.1 mg/mL endoglucanase
How it was run: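 Rice straw pretreated with liquid ammonia (15 min room temperature, then 1 h at 150° C), suspended at 5 wt % in 50 mM acetate pH5.2. Hydrolysed at 50° C for 24 h with 1.0 mg/mL Trichoderma reesei cellulase plus 0.1 mg/mL mutant or wild-type endoglucanase; glucose measured.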

Row | Molecule | Concentration of glucose generated, Celluclast + Mutant | Concentration of glucose generated, Celluclast + Wild-type
66 | B1 | 16 g/L | 
67 | B2 |  | 11 g/L
68 | B3 | 16 g/L | 
69 | B4 |  | 11 g/L
70 | B5 | 15 g/L | 

Assay: Saccharification of lignocellulose 2 with Celluclast and endoglucanase
Format: biochemical, Rice straw
Conditions: 5 wt % Lignocellulose 2, pH 5.2, 50° C., 24 hours; 1.0 mg/mL cellulase + 0.1 mg/mL endoglucanase
How it was run: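 Dilute-sulfuric-acid-pretreated rice straw (10 wt% solids, pH ~5) suspended at 5 wt% in 50 mM acetate buffer pH 5.2 was digested 24 h at 50 °C with 1.0 mg/mL Trichoderma reesei Celluclast plus 0.1 mg/mL mutant or wild-type endoglucanase; glucose released was measured.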

Row | Molecule | Concentration of glucose generated, Celluclast + Mutant | Concentration of glucose generated, Celluclast + Wild-type
71 | B1 | 15 g/L | 
72 | B2 |  | 11 g/L
73 | B3 | 16 g/L | 
74 | B4 |  | 12 g/L
75 | B5 | 15 g/L | 
